The text below walks through data of US20160096892A1 (Novartis, published 2016).

This experiment has as its target T1, recombinant Fc-tagged hsCD33 (human, UniProt P20138 18-259).
T1 construct: Soluble staining reagent, detected with a PE-conjugated Fc-specific secondary antibody; not shown: Fc tag
Description: flow cytometry; JNL cells displaying the scFv CAR, recombinant Fc-tagged hsCD33, PE anti-Fc secondary. How it is done:
FIG. 32 is an image depicting cross-reactivity of T cells expressing scFvs targeting CD33 to cynomolgus CD33 (cyCD33) by flow cytometry. JNL cells transduced with a lentiviral vector expressing scFv's raised against hsCD33 were incubated with either recombinant Fc-tagged hsCD33 (dotted line) or cyCD33 (solid line) followed by incubation with an Fc-specific secondary antibody conjugated to phycoerythrin.
Finally, scFv cross-reactivity to cynomolgus CD33 (cyCD33) was assessed by flow cytometry as depicted in FIG. 32. JNL cells transduced with a lentiviral vector expressing scFv's raised against hsCD33 were incubated with either recombinant Fc-tagged hsCD33 (red line) or cyCD33 (blue line) followed by incubation with an Fc-specific secondary antibody conjugated to phycoerythrin. While scFv clones CD33-1, -2, -3, -4, -5, -6, -7, -9, and CD33-UPenn were capable of binding hsCD33, we note that only scFv clone CD33-5 appeared to be cross-reactive to both hsCD33 and cyCD33 (FIG. 32).
In general terms: A flow cytometer gives signals particle by particle.

T1 sequence (P20138 18-259 limits assumed): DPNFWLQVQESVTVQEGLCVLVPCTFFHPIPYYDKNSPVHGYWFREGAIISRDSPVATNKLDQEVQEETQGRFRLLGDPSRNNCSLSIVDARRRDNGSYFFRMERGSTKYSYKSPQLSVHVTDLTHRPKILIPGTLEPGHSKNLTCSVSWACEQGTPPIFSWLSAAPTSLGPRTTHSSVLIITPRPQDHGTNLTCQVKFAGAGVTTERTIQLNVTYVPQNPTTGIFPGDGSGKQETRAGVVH

B1: CD33-UPenn (scFv based on the sequence of Mylotarg; humanized My96) (scFv, not shown: small tags and cut ends)
chain: EIVLTQSPGSLAVSPGERVTMSCKSSQSVFFSSSQKNYLAWYQQIPGQSPRLLIYWASTRESGVPDRFTGSGSGTDFTLTISSVQPEDLAIYYCHQYLSSRTFGQGTKLEIKRGGGGSGGGGSSGGGSQVQLQQPGAEVVKPGASVKMSCKASGYTFTSYYIHWIKQTPGQGLEWVGVIYPGNDDISYNQKFQGKATLTADKSSTTAYMQLSSLTSEDSAVYYCAREVRLRYFDVWGQGTTVTVSS
notes: also called CAR33-UPenn
For B1, the binding result is “binds”.
